Key:
Conditions in all cases: 20 nM; 72 h
MCF10A [1] = assay: one-nucleolus phenotype percent effect (relative to siNT 0% and siNOL11 100%); higher = more cells with one nucleolus (ribosome biogenesis inhibition)
Method: (§1)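 After 72 h, cells were fixed and stained with Hoechst and anti-fibrillarin, and nucleoli per nucleus were counted with CellProfiler. Values are plate-adjusted percent effect for the one-nucleolus and 5+ nucleoli phenotypes, normalised to siNT (0%) and to the positive controls siNOL11 or siKIF11 (100%), as the mean of biological triplicates. Percent viability is the nuclei count relative to siNT.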

MCF10A [2] = assay: percent viability (nuclei count relative to siNT); higher = more viable cells
Method: as §1

MCF10A [3] = assay: 5+ nucleoli phenotype percent effect (relative to siNT 0% and siKIF11 100%); higher = more cells with five or more nucleoli
Method: as §1

| Sequence | one-nucleolus phenotype percent effect (MCF10A [1]) | percent viability (MCF10A [2]) | 5+ nucleoli phenotype percent effect (MCF10A [3]) |
| --- | --- | --- | --- |
| UGCCUCCCUGACAUUCCACAG [hsa-miR-6778-3p] | 10.1% | 7.57% | -21% |
| CAUUGCACUUGUCUCGGUCUGA [hsa-miR-25-3p] | 3.94% | 96.4% | -21.1% |
| AUUGACACCUCUGUGAGUGGA [hsa-miR-514b-3p] | 16.1% | 32.6% | -12.5% |
| ACUUGGGCAGGAGGGACCCUGUAUG [hsa-miR-6774-5p] | 31.5% | 22% | -35.9% |
| UUAUUGUCACGUUCUGAUU [hsa-miR-5701] | 4.81% | 22.2% | 3.43% |
| ACUGUCACUUCUCUGCCCAUAG [hsa-miR-6773-3p] | 13.5% | 47.1% | -17.8% |
| CAGCCACAACUACCCUGCCACU [hsa-miR-449b-3p] | -5.19% | 71.9% | 1.67% |
| UAGUUCUUCCCUUUGCCCAAUU [hsa-miR-5584-3p] | 5.26% | 32.6% | -41% |
| CAGUGUUCAGAGAUGGA [hsa-miR-4255] | -51.8% | 148% | 68.6% |
| AAAGCGCUUCCCUUCAGAGUG [hsa-miR-518e-3p] | 9.91% | 48.9% | -27.4% |
| CCCUGUUCUAUGCCCUGAGGGA [hsa-miR-1266-3p] | -19.3% | 90.7% | 47.8% |
| UUAAUUUUUUGUUUCGGUCACU [hsa-miR-4775] | -18.6% | 88.3% | 21.1% |
| ACCAUCGACCGUUGAUUGUACC [hsa-miR-181a-3p] | -7.58% | 87.3% | 21.1% |
| CAGGGCCUCACUGUAUCGCCCA [hsa-miR-4512] | 18.5% | 20% | 0.0146% |
| CUGGGAUCUCCGGGGUCUUGGUU [hsa-miR-769-3p] | 18% | 40.7% | -14.5% |
| UAACGGCCGCGGUACCCUAA [hsa-miR-4485] | 0.183% | 32.8% | -19.2% |
| ACUGGACUUGGUGUCAGAUGG [hsa-miR-378h] | -14.6% | 80% | 41% |
| CCAGUGUGGCUCAGCGAG [hsa-miR-4302] | 18.9% | 28.8% | -22.9% |
| AAAAGUGAUUGCAGUGUUUG [hsa-miR-548ah-5p] | -15.3% | 114% | 17.4% |
| UAUUGCACUCGUCCCGGCCUCC [hsa-miR-92b-3p] | -7.61% | 76.9% | 2.75% |
| UCGUACCGUGAGUAAUAAUGCG [hsa-miR-126-3p] | 5.16% | 30.2% | -0.677% |
| CGAAAACAGCAAUUACCUUUGC [hsa-miR-570-3p] | -22.6% | 164% | 34.2% |
| UUCGCCACUUCCCUCCCUGCAG [hsa-miR-6788-3p] | -13.9% | 89.7% | 18% |
| AUACCCAUAGCUUAGCUCCCA [hsa-miR-5591-3p] | 47% | 16.2% | -19.5% |
| UCCCUGCCCCCAUACUCCCAG [hsa-miR-6752-3p] | 14.5% | 28.7% | -28.9% |
| CUGUAAUAUAAAUUUAAUUUAUU [hsa-miR-2054] | -17.6% | 168% | 28% |
| CGAGCCUCAAGCAAGGGACUU [hsa-miR-2114-3p] | 19.8% | 32.7% | -15.9% |
| AUGGAAUGUAUAUACGGAAUA [hsa-miR-3673] | 63.4% | 35.7% | -48.6% |
| GUGUGCGGAAAUGCUUCUGCUA [hsa-miR-147b] | -12.4% | 70.3% | 33.7% |
| CAGGGUCAGCUGAGCAUG [hsa-miR-1178-5p] | 9.85% | 51.5% | 8.34% |
